# Measurements from the supplement of paper PMC6757056.
# ± gives the standard deviation of the averaged measurements.
# B1: library; a variant is named by its letters at N, in order (parent)
# chain: GCUGUCACCGGUGUAUUACCCUAGUGGUCGACCGGUCUGAUGAGUCUNNNNNNAGACGAAACAGC
# B2: library; a variant is named by its letters at N, in order (parent)
# chain: GCUGUCACCGGAAUACCAGCAUCGUCUUGAUGCCCUUGGAAGUCCGGUCUGAUGAGUCCNNNNNGGACGAAACAGC
# What was measured:
# hypoxanthine [1] = variants of: B1; assay: FACS-Seq fitted mean relative fluorescence mCherry/BFP without ligand (log10 relative fluorescence); ligand: hypoxanthine (xanthine aptamer); higher = higher reporter protein expression; conditions: HEK293T, ligand present: no
# Description: (§1)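 Hammerhead (sTRSV) ribozyme switch libraries with a ligand aptamer grafted on stem I and a randomized N4-6 loop II, cloned into the 3' UTR of mCherry and transiently transfected into HEK293T cells; RNA-Seq 72 h post transfection with ligand added 1 h before transfection; RNA read count / plasmid DNA read count normalized to the non-cleaving sTRSVctl (x100), log10; sequences with >100 DNA reads. FACS-Seq: lentiviral library sorted into 6 bins after 48 h ligand, log-normal fit mean of mCherry/BFP scaled to controls. Printed sequences are partial switch sequences.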
# hypoxanthine [2] = variants of: B1; assay: normalized RNA/DNA level with ligand (relative to sTRSVctl = 100) (log10 (% of sTRSVctl)); ligand: hypoxanthine (xanthine aptamer); higher = less ribozyme self-cleavage, higher mRNA level; conditions: ligand concentration (+) RNA-Seq: 5 mM, HEK293T, reporter: mCherry (pCS4076), ligand present: yes
# Description: as §1
# hypoxanthine [3] = variants of: B1; assay: normalized RNA/DNA level without ligand (relative to sTRSVctl = 100) (log10 (% of sTRSVctl)); ligand: hypoxanthine (xanthine aptamer); higher = less ribozyme self-cleavage, higher mRNA level; conditions: HEK293T, reporter: mCherry (pCS4076), ligand present: no
# Description: as §1
# hypoxanthine [4] = variants of: B1; assay: FACS-Seq fitted mean relative fluorescence mCherry/BFP with ligand (log10 relative fluorescence); ligand: hypoxanthine (xanthine aptamer); ligand concentration (+) FACS-Seq: 5 mM; higher = higher reporter protein expression; conditions: HEK293T, ligand present: yes
# Description: as §1
# theophylline [5] = variants of: B2; assay: FACS-Seq fitted mean relative fluorescence mCherry/BFP without ligand (log10 relative fluorescence); higher = higher reporter protein expression; conditions: HEK293T, ligand present: no
# Method in brief: (§2)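 Fluorescence is reported as a normalized fitted mean of sorted-bin read counts. Lentivirally transduced HEK293T libraries (mCherry ribozyme-switch reporter, EF1α-BFP marker) were enriched, treated with or without ligand for 48 h, and sorted into 6 mCherry/BFP bins for MiSeq sequencing of PCR-amplified genomic DNA. The normal fit was on log10(mCherry/BFP), scaled to five spiked-in control ribozymes.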
# theophylline [6] = variants of: B2; assay: normalized RNA/DNA level with ligand (relative to sTRSVctl = 100) (log10 (% of sTRSVctl)); higher = less ribozyme self-cleavage, higher mRNA level; conditions: ligand concentration (+) RNA-Seq: 5 mM, HEK293T, reporter: mCherry (pCS4076), ligand present: yes
# Method in brief: (§3)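 Ribozyme switch library plasmids linked to reporters were introduced into HEK293T cells at 4 µg per 6-well well, with ligand, if any, added 1 h before. Total RNA was extracted with EDTA 72 h later, reverse-transcribed, amplified, barcoded and sequenced. RNA level was computed from RNA over DNA reads relative to a spiked-in non-cleaving sequence or the top sequences, then scaled and log-transformed. The top set was 25 sequences, values were ×100 and log10, and the cutoff was ≥100 DNA reads.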
# theophylline [7] = variants of: B2; assay: normalized RNA/DNA level without ligand (relative to sTRSVctl = 100) (log10 (% of sTRSVctl)); higher = less ribozyme self-cleavage, higher mRNA level; conditions: HEK293T, reporter: mCherry (pCS4076), ligand present: no
# Method in brief: as §3
# theophylline [8] = variants of: B2; assay: FACS-Seq fitted mean relative fluorescence mCherry/BFP with ligand (log10 relative fluorescence); ligand concentration (+) FACS-Seq: 1 mM; higher = higher reporter protein expression; conditions: HEK293T, ligand present: yes
# Method in brief: as §2
Variant,FACS-Seq fitted mean (log10) (hypoxanthine [1]),normalized RNA/DNA level with ligand (log10) (hypoxanthine [2]),normalized RNA/DNA level without ligand (log10) (hypoxanthine [3]),FACS-Seq fitted mean (log10) (hypoxanthine [4]),FACS-Seq fitted mean (log10) (theophylline [5]),normalized RNA/DNA level with ligand (log10) (theophylline [6]),normalized RNA/DNA level without ligand (log10) (theophylline [7]),FACS-Seq fitted mean (log10) (theophylline [8])
CGAUAC,-0.0585 ± 0.029,1.894 ± 0.0067,1.69 ± 0.019,0.176 ± 0.056,,,,
CCUGAG,0.635 ± 0.045,1.918 ± 0.014,1.653 ± 0.0099,0.706 ± 0.046,,,,
CGAAGG,0.0138 ± 0.042,1.806 ± 0.015,1.4 ± 0.13,0.39 ± 0.041,,,,
AGACAG,0.418 ± 0.037,1.82 ± 0.053,1.391 ± 0.011,0.565 ± 0.052,,,,
GUGAAG,0.168 ± 0.0046,1.73 ± 0.0073,1.15 ± 0.072,0.591 ± 0.023,,,,
UGGCUG,0.218 ± 0.011,2.02 ± 0.0097,1.95 ± 0.04,0.298 ± 0.023,,,,
CUGCC,,,,,0.906 ± 0.094,2.09 ± 0.045,1.9591 ± 0.0014,0.841 ± 0.055
CUGCU,,,,,0.644 ± 0.032,1.92 ± 0.082,1.86 ± 0.062,0.658 ± 0.0024
UUGGA,,,,,0.406 ± 0.064,2.01 ± 0.037,1.59 ± 0.14,0.494 ± 0.023
UUAUC,,,,,1.09 ± 0.15,2.04 ± 0.049,1.96 ± 0.16,1.19 ± 0.12
UUAUG,,,,,0.732 ± 0.015,2.06 ± 0.071,1.907 ± 0.0097,0.821 ± 0.031
UUAUU,,,,,0.914 ± 0.092,1.96 ± 0.12,1.95 ± 0.11,0.942 ± 0.076
AUUUC,,,,,1 ± 0.085,2.01 ± 0.07,1.97 ± 0.11,0.865 ± 0.018
AUUUA,,,,,0.734 ± 0.078,2 ± 0.11,1.8 ± 0.08,0.834 ± 0.062
AUUUU,,,,,0.213 ± 0.053,2.02 ± 0.043,1.88 ± 0.062,0.194 ± 0.022
AUUUG,,,,,0.103 ± 0.037,2.03 ± 0.083,1.93 ± 0.17,0.184 ± 0.037
AUAUU,,,,,0.891 ± 0.015,2.05 ± 0.067,1.91 ± 0.024,0.928 ± 0.12
AUAUG,,,,,0.794 ± 0.14,1.99 ± 0.045,1.8 ± 0.087,0.981 ± 0.043
